Molecular target: murine CCR6 expressed on HEK293 cells (HEK293/CCR6) (murine) (UniProt O54689)
Assay: cell-based or functional assay

Row | chemotaxis of murine bone marrow derived immature DC, peak activity [ng/mL] | Substance
1 | 10 | mDF2βsFv38, murine β-defensin 2 fusion with sFv38 (from UniProt P82020 21-71)
2 | 100 | mDF3βsFv38, murine β-defensin 3 fusion with sFv38 (from UniProt Q9WTL0 23-63)

Reference: patent US20050095257A1
